The values below come from patent CN117024592A (WEST CHINA HOSPITAL SICHUAN UNIV, dated 2023).

Assay [1] has as its target T1, 人源B7H3(细胞表面表达) (human, UniProt Q5ZPR3 29-534).
T1 construct: whole, on cells; in the ADCC assay the protein is the endogenous B7H3 of A375 cells; also called CD276; 人B7H3
T1 sequence (looked up): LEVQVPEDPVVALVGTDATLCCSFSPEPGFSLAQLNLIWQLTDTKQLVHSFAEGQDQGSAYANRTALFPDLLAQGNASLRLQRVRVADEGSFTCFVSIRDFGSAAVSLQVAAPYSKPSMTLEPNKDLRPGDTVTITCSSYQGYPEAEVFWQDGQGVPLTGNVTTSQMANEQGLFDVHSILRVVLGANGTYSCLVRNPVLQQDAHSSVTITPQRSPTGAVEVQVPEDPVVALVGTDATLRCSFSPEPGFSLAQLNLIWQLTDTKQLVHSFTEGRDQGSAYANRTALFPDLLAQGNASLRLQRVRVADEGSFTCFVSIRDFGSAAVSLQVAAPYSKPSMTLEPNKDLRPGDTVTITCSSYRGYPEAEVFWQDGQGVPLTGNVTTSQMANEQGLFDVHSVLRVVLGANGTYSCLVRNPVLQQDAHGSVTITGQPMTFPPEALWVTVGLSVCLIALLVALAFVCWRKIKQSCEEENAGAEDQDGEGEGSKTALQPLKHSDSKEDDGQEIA
Briefly: flow cytometry, hybridoma supernatant on cells expressing B7H3. On the technique in general: Flow cytometry measures light scatter and fluorescence of single cells or particles in a stream.

Assay [2] addresses T2, B7H3-His重组蛋白 (human, UniProt Q5ZPR3 29-466).
T2 construct: extracellular domain; also called 携带His标签的重组B7H3蛋白; not shown: C-terminal His tag
T2 sequence (looked up): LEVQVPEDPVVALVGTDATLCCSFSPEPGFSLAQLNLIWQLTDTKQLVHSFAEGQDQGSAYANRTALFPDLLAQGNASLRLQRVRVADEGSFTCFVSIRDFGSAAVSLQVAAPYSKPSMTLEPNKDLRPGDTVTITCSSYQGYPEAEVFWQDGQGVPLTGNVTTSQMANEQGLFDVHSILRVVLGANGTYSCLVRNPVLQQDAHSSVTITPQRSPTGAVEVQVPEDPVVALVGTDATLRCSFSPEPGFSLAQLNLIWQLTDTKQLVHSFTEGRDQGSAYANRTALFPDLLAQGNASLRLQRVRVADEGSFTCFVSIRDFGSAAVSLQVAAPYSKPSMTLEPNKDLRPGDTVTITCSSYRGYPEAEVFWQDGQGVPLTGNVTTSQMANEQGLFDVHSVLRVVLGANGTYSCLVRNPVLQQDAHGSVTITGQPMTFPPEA
Kind of assay: SPR (Biacore), B7H3-His amine-coupled to CM5 chip, antibody as analyte. A general note: Surface plasmon resonance follows binding to a sensor surface in real time, without labels.

For assay [3], the target named is T3, 鼠源B7H3(稳定表达细胞株mB7H3-CHO) (mouse, UniProt Q8VE98 29-316).
T3 construct: whole, on cells; also called 鼠B7H3蛋白
T3 sequence (looked up): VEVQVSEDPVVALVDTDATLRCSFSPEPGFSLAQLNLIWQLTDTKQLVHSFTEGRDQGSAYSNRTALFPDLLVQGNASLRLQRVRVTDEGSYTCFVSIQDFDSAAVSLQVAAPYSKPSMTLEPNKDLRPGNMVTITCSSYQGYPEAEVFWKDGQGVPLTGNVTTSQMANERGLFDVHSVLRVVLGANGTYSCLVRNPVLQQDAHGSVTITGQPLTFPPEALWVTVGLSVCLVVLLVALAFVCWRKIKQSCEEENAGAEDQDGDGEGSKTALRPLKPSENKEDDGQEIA
Kind of assay: flow cytometry, hybridoma supernatant on mB7H3-CHO cells.

Assay [4] concerns the target T1, 人源B7H3(细胞表面表达). Kind of assay: flow cytometry on CHO cells stably expressing B7H3.

B1: 鼠源单克隆抗体J65(杂交瘤克隆J65上清) (antibody, V domains shown)
VH: EVQLQESGGDLVKPGGSLKLSCEASGFTFSSHGMSWIRQTPDKRLDWVATISGGGRYSYYPDNIQGRFTISRDNAKDTLYLQMSSLQSEDTALYYCARHWDGYLDYWGQGTTLTVSS
VL: DIVMTQTPASLSASVGETVTITCRPSENIYSYLAWYQQKQGKSPQLLVYNAKTLTEGAPSRFSGSGSGTQFSLKINSLQPEDFGIYYCQHHYGPPPYTFGGGTKVEIK
notes: Mouse monoclonal antibody as secreted by the hybridoma (supernatant used in flow cytometry); also called 杂交瘤J65; 单抗J65
As for B1, the binding result is “binds” in assay [1], “binds” in assay [2] and “no binding” in assay [3].

B2: 嵌合抗体J65(cJ65) (antibody, V domains shown)
VH: B1 VH
VL: B1 VL
notes: also called cJ65-1
Take B2: the binding result in assay [4] is “binds”.

B3: 重组鼠源单抗J65(mJ65) (antibody, V domains shown)
VH: B1 VH
VL: B1 VL
notes: also called 重组鼠单抗mJ65
For the molecule B3, the binding result in assay [4] is “binds”.

B4: 人源化单抗huJ65-2 (antibody, V domains shown)
VH: EVQLVESGGGLVQPGGSLRLSCEASGFTFSSHGMSWVRQAPGKGLEWVATISGGGRYSYYPDNIQGRFTISRDNAKNSLYLQMNSLRAEDTAVYYCARHWDGYLDYWGQGTLVTVSS
VL: DIQMTQSPSSLSASVGDRVTITCRPSENIYSYLAWYQQKPGKAPKLLVYNAKTLTEGAPSRFSGSGSGTDFTLTISSLQPEDFATYYCQHHYGPPPYTFGQGTKVEIK
notes: also called hJ65-2; 人源化抗体2
As to B4, the binding result in assay [4] and in assay [2] was “binds” each time.
